Test [1] addresses SARS-CoV-2 (WIV02 isolate) prefusion stabilized spike trimer protein (UniProt P0DTC2 14-1213). Kind of test: ELISA.
The next test has as its target SARS-CoV-1 Spike (SARS-CoV-1, UniProt P59594 14-1195). Kind of test: ELISA. In general terms: In an ELISA, binding on a coated surface is turned into a signal by an enzyme label.

Where a chain is given by its changes, count along the chain named.

As usually defined, the IC50 is the point on the concentration scale where inhibition reaches its midpoint. A low value points to inhibition by little substance.

B1: 4-L4-A (antibody, V domains shown)
VH: QAYLQQSGAELVRPGASVKMSCKASGYTFTSYTVHWVKQTPRQGLEWIGGIYPGNVDTSYNQNFKGKATLTVDKSSSTAYMQLSSLTSEDSAVYFCARDGYYAMDYWGQGTSVTVSS
VL: not shown
As for B1, the 50% inhibitory concentration (IC50) in test [1] came to 8.34 nM.

B2: 1-L10-A (antibody, V domains shown)
VH: EVKLEESGGGLVQPGGSMKLSCVASGFTFNNYWMNWVRQSPEKGLEWVAQMRLKSDNYATHYAESVKGRFTISRDDSKSSVYLQMNNLRAEDTGIYYCIEGYWTYWGQGTLVTVSA
VL: QIVLTQSPAIMSASLGERVTMTCTASSSVSSSYLHWYQQKPGSSPKLWIYSTSNLASGVPARFSGNGSGTSYSLTISSMEAEDAATYYCLQYHRSPPYTFGGGTKLEIK
For the molecule B2, the figures for the IC50 (in test [1]; in the test with SARS-CoV-1 Spike) were 8.65 nM and 7.5 nM, respectively.

B3: 8-H5-A (antibody, V domains shown)
VH: QVTLKESGPGILQSSQTLSLTCSLSGFSLSTSGMGVSWVRQPSGKGLEWLAHIYWDDDKRYTPSLKSRLTISTDSSRKQVFLKITSVDTADTATYYCARRDLHDYDGWFAYWGQGTLVTVSA
VL: DIVMTQSQKFMSTAVGDRVSVTCKASQNVGTNVAWYQQKPGQSPKALIYSASFRYSGVPDRFSGSGSGTDFTLTISNVQSEDLAEYFCQQYNSYPLTFGSGTKLEIK
As to B3, 12.8 nM corresponded to half-maximal inhibition in test [1] (IC50).

B4: 3-P7-A (antibody, V domains shown)
VH: QAYLQQSGAELVRPGASVKMSCKASGYTFTSYSMHWVKQTPRQGLEWIGAIYPGNDDTSYNQKFKGKATLTVDKSSSTAYMQLSSLTSEDSAVYFCTRDYTNYPFDYWGQGTTLTVSS
VL: DIVLTQSPASLPVSLGQRATISCRASKSVSTSGYSYMHWYQQRPGQPPKLLIYLASNLESGVPARFSASGSGTDFTLNIHPVEEEDAATYYCQHSRELPPTFGGGTKVEIK
In test [1], B4 came in with an IC50 of 8.86 nM. The IC50 values of the last two molecules are within 1.5-fold of each other.

B5: 2-H7-A (antibody, V domains shown)
VH: QAYLQQSGAELVRPGASVKMSCKASGYTFTGYTMHWVKQTPRQGLEWIGAIYPENGDTSYNQKFKGKATLTVDKSSSTAYMQLSSLTSEDSAVYFCARDGYDVLYGMDYWGQGTSVTVSS
VL: B4 VL with P12A, R43K, A68G, P100W, V108L, E109D
As for B5, the 50% inhibitory concentration (IC50) in test [1] amounted to 7.21 nM.

B6: 9-K4-A (antibody, V domains shown)
VH: B4 VH with T30P, S31N, M34F, K63R, T97A, T101S, Y107C
VL: B4 VL with P12A, R43K, A68G, V108L
B6 returned an IC50 in test [1] of 72.6 nM. Compared with the last molecule, the IC50 is about 10-fold higher.

B7: 10-O24-A (antibody, V domains shown)
VH: B4 VH with K74R, T101S
VL: B4 VL with P12A, S14F, A68G, V108L
B7 registered a half-maximal inhibitory concentration (IC50) in test [1] of 5.84 nM.

B8: 2-G20-A (antibody, V domains shown)
VH: EVQLQQSGPELVKPGASVKMSCKASGYTFPSYVLHWVKQKPGQGLEWIGYIYPYNDGTNYNEKFKGKATLTSDKSSSTAYMELSSLTSEDSAVYYCARGDYGDSAWFPYWGQGTLVTVSA
VL: B4 VL with P12A, R43K, E59K, A68G, S69G, H94L, P100W, V108L
Regarding B8, the concentration for half-maximal inhibition (IC50) in test [1] came out at 18.3 nM; in the test with SARS-CoV-1 Spike it was 6.65 nM.

B9: 8-L17-A (antibody, V domains shown)
VH: EVQLVESGGGLVQPKGSLKLSCAASGFTFNTYAMHWVRQAPGKGLEWVARIRSKSSNYARYYADSVKDRFTISRDDSQSMLYLQMNNLKTEDTAMYYCVRDHDYYGSSYWFAYWGQGTLVTVSA
VL: DVVMTQTPLSLPVSLGDQASISCRSSQSLVHNNGNTYLHWYLQKPGQSPKLLIYKVSNRFSGVPDRFSGSGSGTDFTLKISRVEAEDLGVYFCSQSTHVPWTFGGGTKLEIK
In test [1], B9 gave a concentration for half-maximal inhibition (IC50) of 60.8 nM.

B10: 2-P2-A (antibody, V domains shown)
VH: EVQLQQSGAELVRPGSSVKMSCKTSGYTFTSYGINWVKQRPGQGLEWIGYIYIGNGYTEYNEKFKGKATLTSDTSSSTAYMQLSSLTSEDSAIYFCARGGVDYWGQGTTLTVSS
VL: B9 VL with V3L, L29I, N32S, H39E, F92Y, S94F, S96G, T97S, W101Y
For B10, the IC50 with SARS-CoV-1 Spike is 17.9 nM.

B11: 8-H3-A (antibody, V domains shown)
VH: B9 VH with R60T, A112T
VL: B9 VL with N32D, Y41F, A85T
B11 came in with a 50% inhibitory concentration (IC50) in test [1] of 19.4 nM.

B12: 8-A17-A (antibody, V domains shown)
VH: QVQLKESGPGLVAPSQSLSITCTVSGFSLTSYAISWVRQPPGKGLEWLGVVWPGGGTNYNSALKSRLSINKDNSKSQVFLKMNSLQTDDTGRYYCARTGYHFDYWGQGTTLTVSS
VL: QIVLTQSPAIMSASPGEKVTMTCSVSSSVSYMHWYQQKSGTSPKRWIYDTSKLASGVPARFSGSGSGTSYSLTISSMEAEDAATYYCQQWSSNPPMYTFGGGTKLEIK
B12 yielded an IC50 with SARS-CoV-1 Spike of 5.1 nM.

B13: 1-B11-A (antibody, V domains shown)
VH: QVQLQQSGPELVKPGASVKISCKASGYTFTDHYINWVKQRPGQGLEWIGWIFPGSGSTYYNEQFKGKATLTVDKSSNTAYMLLSSLTSEDSAVYFCARSGGLRLGFAYWGQGTLVTVSA
VL: DIQMTQTTSSLSASLGDRVTISCRASQDISNYLNWYQQKPDGTVKLLIYYTSRLHSGVPSRFSGSGSGTDYSLTISNLEQEDISTYFCQQVNTLPYTFGGGTKLEIK
Take B13: the half-maximal inhibitory concentration (IC50) in the test with SARS-CoV-1 Spike is 20.9 nM.

B14: 10-B13-A (antibody, V domains shown)
VH: QVQLQQSGAELVKPGASVKISCKASGYAFSNYWMNWVKQRPGKGLEWIGQIYPGDGDTNYNGNFKGKATLTADKSSSTAYIQLSSLTSEDSAVYFCGRGFIATVVEVFDHWGLGTTLTVSS
VL: B13 VL with H55Q, S67T, S84A, V91G, Y96W
In the case of B14, in the test with SARS-CoV-1 Spike, the half-inhibitory concentration (IC50) is 19.4 nM.

B15: 9-F6-A (antibody, V domains shown)
VH: EVQLQQSGPELVKPGASVKMSCKASGYTFTSYIMHWVKQKPGQGLEWIGYILPYNDGTKYNEKFKGKATLTSDKSSSTAYMELRSLTSEDSAVYYCARWGYSNFLDSWGQGTTLTVSS
VL: B13 VL with S30N, S76R, S84A, V91G, Y96P
As to B15, the values for the 50% inhibitory concentration (IC50) (in test [1]; with SARS-CoV-1 Spike) were 16.7 nM and 5.55 nM, respectively.

B16: 6-O12-A (antibody, V domains shown)
VH: QVQLQQPGTELVKPGASVKLSCKASGYTFTSYWMHWVKQRPGQGLEWIGNINPSNGGTNYNEKFRSKATLTVDKSSSTAYMQLSSLTSEDSAVYYCARLGWFLPLGSWGQGTTLTVSS
VL: QIVLTQSPAIMSASLGEVITLTCSASSSVSYMHWYQQKSGTSPKLLIYSTSNLASGVPSRFSGSGSGTFYSLTISSVEAEDAADYYCHQWSGYMYTFGGGTKLEIK
Take B16: the 50% inhibitory concentration (IC50) amounted to 7.62 nM in test [1] and 5.4 nM with SARS-CoV-1 Spike.

B17: 4-M3-A (antibody, V domains shown)
VH: EVQLQQSGPELVKPGDSVKISCKASGYSFTGYFMNWVMQSHGKSLEWIGRINPNNGETFYNQKFKGKATLTVDKSSDTAHMELRSLTSEDSAVYYCARGGTGTGWGQGTTLTVSS
VL: DILMTQSPSSMSVSLGDTVSITCHASQGISSNIGWLQQKPGKSFKGLIYYGTNLEDGVPSRFSGSGSGADYSLTISSLESEDLADYYCIQYAQFPYTFGGGTKLEIK
In the case of B17, the half-maximal inhibitory concentration (IC50) in test [1] came to 7.36 nM.

B18: 4-N22-A (antibody, V domains shown)
VH: QVQLQQPGTELVKPGASVKLSCKASGYTFTNYWMYWVKQRPGQGLDWIGNINPSNGGTNYNEKFKSKATLTVDKSSSTAYMQLSSLTSEDSAVYYCARETGNYWGQGTTLTVSS
VL: B17 VL with T22S, Y50H, L83F, I89V
In test [1], B18 came in with a half-inhibitory concentration (IC50) of 4.93 nM.

B19: 2-O12-A (antibody, V domains shown)
VH: EVQLQQSGPELVKPGASVKISCKASGYTFTDYYMNWVKQSHGKSLEWIGDINSNNGGTTYDQKFKGKATLTVDRSSSTAYMELRSLTSEDSAVYYCARRGDGHFGGFTYWGQGTLVTVSA
VL: not shown
Regarding B19, in test [1], the midpoint of inhibition, the IC50, lay at 14.9 nM.

B20: 3-E2-A (antibody, V domains shown)
VH: B19 VH with S53P, T59S, D61T, R74K, T78K, F104Y
VL: not shown
In turn, B20 gave an IC50 in test [1] of 18.4 nM.

For the origin of these results see patent publication US20220372114A1 (published 2022).
